# Test results from US20020160955A1 (published 2002).
# T1: IGF-I G42A (G1S-A70V background) displayed on phage (human; bacteriophage M13)
# T1 construct: monovalent M13 phage display
# T1 chain: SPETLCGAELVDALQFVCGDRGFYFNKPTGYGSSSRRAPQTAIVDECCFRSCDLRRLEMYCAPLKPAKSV
# T2: IGF-I N26A (G1S-A70V background) displayed on phage (human; bacteriophage M13, not fully specified; Displayed monovalently on M13 phage as a C-terminal fusion to the gene III fragment, which is left out of the letters.)
# T2 construct: monovalent M13 phage display; not shown: Display carrier: M13 gene III fragment (residues 249-406) and its junction
# T2 chain: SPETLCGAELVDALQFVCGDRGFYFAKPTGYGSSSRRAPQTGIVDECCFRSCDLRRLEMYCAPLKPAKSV
# T3: IGF-I L14A (G1S-A70V background) displayed on phage (human; bacteriophage M13)
# T3 construct: monovalent M13 phage display
# T3 chain: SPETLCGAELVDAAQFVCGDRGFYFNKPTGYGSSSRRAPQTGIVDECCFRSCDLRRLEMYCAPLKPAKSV
# B1: human IGFBP-1 (other, UniProt P08833 26-259, looked up)
# chain: APWQCAPCSAEKLALCPPVSASCSEVTRSAGCGCCPMCALPLGAACGVATARCARGLSCRALPGEQQPLHALTRGQGACVQESDASAPHAAEAGSPESPESTEITEEELLDNFHLMAPSEEDHSILWDAISTYDGSKALHVTNIKKWKEPCRIELYRVVESLAKAQETSGEEISKFYLPNCNKNGFYHSRQCETSMDGEAGLCWCVYPWNGKRIPGSPEIRGDPNCQIYFNVQN
# notes: secreted recombinant protein purified from conditioned medium
# Tests used:
# [1] = biological target: T4, F49A IGF-I (purified, soluble) (human, UniProt P05019 49-118); experiment: BIACORE; KD mut/KD wt
# T4 construct: made from the wild-type template pBKIGF2B-f1-ori; also called F49A IGF variant
# Description: (§1) Carboxymethylated dextran biosensor chips (CM5, BIAcore Inc.) were activated with EDC (N-ethyl-N′-(3-dimethylaminopropyl)-carbodiimide hydrochloride) and NHS (N-hydroxysuccinimide) according to the supplier's instructions. For immobilization, IGF mutants in 20 mM sodium acetate, pH 4.8, were injected onto the biosensor chip at a concentration of 50 μg/ml to yield approximately 450-600 RU's (resonance-response units) of covalently-coupled protein. Unreacted groups were blocked with an injection of 1 M ethanolamine. […] Association rates (kₐ) and dissociation rates (kd) were calculated separately using a 1:1 Langmuir™ association model in the BIACORE™ evaluation software v. 3.0. The equilibrium dissociation constant (KD) was calculated as kd/kₐ.
# [2] = biological target: T5, IGF-I V11A (purified, soluble) (human, UniProt P05019 49-118); experiment: BIACORE; KD mut/KD wt
# T5 construct: made from the wild-type template pBKIGF2B-f1-ori
# Description: as §1
# [3] = biological target: T6, wild-type human IGF-I (purified, soluble) (human, UniProt P05019 49-118); experiment: BIACORE; KD mut/KD wt
# T6 construct: immobilized on the biosensor chip by amine coupling in BIACORE experiments; also called IGF-I WT
# Description: as §1
# [4] = biological target: T7, IGF-I P39A (purified, soluble) (human, UniProt P05019 49-118); experiment: BIACORE; KD mut/KD wt
# T7 construct: made from the wild-type template pBKIGF2B-f1-ori
# Description: as §1
# [5] = biological target: T8, IGF-I R36A (purified, soluble) (human, UniProt P05019 49-118); experiment: BIACORE; KD mut/KD wt
# T8 construct: made from the wild-type template pBKIGF2B-f1-ori
# Description: as §1
# [6] = biological target: T9, IGF-I F25A (purified, soluble) (human, UniProt P05019 49-118); experiment: BIACORE; KD mut/KD wt
# T9 construct: made from the wild-type template pBKIGF2B-f1-ori
# Description: as §1
# [7] = biological target: IGF-I G1S-A70V (purified, soluble) (human, UniProt P05019 50-117); experiment: BIACORE; KD mut/KD wt
# Description: as §1
# [8] = biological target: T10, IGF-I T4A (purified, soluble) (human, UniProt P05019 49-118); experiment: BIACORE; KD mut/KD wt
# T10 construct: made from the wild-type template pBKIGF2B-f1-ori
# Description: as §1
# [9] = biological target: T11, IGF-I F16A (purified, soluble) (human, UniProt P05019 49-118); experiment: BIACORE; KD mut/KD wt
# T11 construct: made from the wild-type template pBKIGF2B-f1-ori; also called IGF-F16A; FI6A
# Description: as §1
# [10] = biological target: T1, IGF-I G42A (G1S-A70V background) …; experiment: competitive phage ELISA
# Description: (§2) Phage particles were harvested and resuspended in PBS buffer as described in Lowman, H. B., “Phage Display of Peptide Libraries on Protein Scaffolds,” in Cabilly, S. (ed.), Combinatorial Peptide Library Protocols (Humana Press Inc.: Totowa, N.J., 1998), pp. 249-264. Then phage concentrations were normalized to yield a maximal ELISA signal of 0.2-0.4 for each mutant (Lowman, in Cabilly, S. (ed.), supra). Threefold serial dilutions of soluble competitor were prepared on non-absorbent microtiter plates (Nunc, F, 96 wells) with binding buffer (0.5% TWEEN™ 20/PBS) containing phage at the previously-determined concentrations. […] After blocking, the plates containing immobilized target were washed with 0.05% TWEEN™/PBS buffer and subsequently incubated with 80 μl/well of the premixed phage-competitor solutions for 1 hour at room temperature. After washing, bound phage was detected with 80 μl/well of a solution containing a primary rabbit anti-phage polyclonal antibody and a secondary goat anti-rabbit monoclonal antibody-horseradish peroxidase conjugate in 0.5% TWEEN 20™/PBS. o-Phenylenediamine (Sigma) and tetramethylbenzidine (Kirkegaard and Perry) were used as chromogenic substrates, resulting in product detection at 492 and 450 nm, respectively. IC₅₀ values were determined by fitting the binding data to a generic saturation curve (Lowman, in Cabilly, S. (ed.), supra). […] Numbers in Table I represent mean +standard deviation of individually assessed IC₅₀ values.
# (§3) At least two different clones of every mutant were tested.
# [11] = biological target: T2, IGF-I N26A (G1S-A70V background) …; experiment: competitive phage ELISA
# Description: as §2, §3
# [12] = biological target: T3, IGF-I L14A (G1S-A70V background) …; experiment: competitive phage ELISA
# Description: as §2, §3
# [13] = biological target: T12, IGF-I G1S-A70V displayed on phage (human; bacteriophage M13); experiment: competitive phage ELISA (FIG. 1)
# T12 construct: monovalent M13 phage display; template of the alanine scan; also called G1S-A70V IGF-I; wild-type-like IGF-I variant; not shown: M13 gene III fragment (residues 249-406, display partner) and the junction to it
# Description: Then phage concentrations were normalized to yield a maximal ELISA signal of 0.2-0.4 for each mutant (Lowman, in Cabilly, S. (ed.), supra). Threefold serial dilutions of soluble competitor were prepared on non-absorbent microtiter plates (Nunc, F, 96 wells) with binding buffer (0.5% TWEEN™ 20/PBS) containing phage at the previously-determined concentrations. […] After blocking, the plates containing immobilized target were washed with 0.05% TWEEN™/PBS buffer and subsequently incubated with 80 μl/well of the premixed phage-competitor solutions for 1 hour at room temperature. After washing, bound phage was detected with 80 μl/well of a solution containing a primary rabbit anti-phage polyclonal antibody and a secondary goat anti-rabbit monoclonal antibody-horseradish peroxidase conjugate in 0.5% TWEEN 20™/PBS. o-Phenylenediamine (Sigma) and tetramethylbenzidine (Kirkegaard and Perry) were used as chromogenic substrates, resulting in product detection at 492 and 450 nm, respectively. IC₅₀ values were determined by fitting the binding data to a generic saturation curve (Lowman, in Cabilly, S. (ed.), supra). […] Numbers in Table I represent mean +standard deviation of individually assessed IC₅₀ values.
# T10 sequence (P05019 other isoform, or with tags, fused parts or gaps): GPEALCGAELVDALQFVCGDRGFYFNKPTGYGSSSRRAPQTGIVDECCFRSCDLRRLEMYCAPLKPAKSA
# T11 sequence (P05019 49-118 F64A): as the sequence (P05019 other isoform, or with tags, fused parts or gaps) above, with A4T, F16A counted along it
# T4 sequence (P05019 49-118 F97A): as the sequence (P05019 other isoform, or with tags, fused parts or gaps) above, with A4T, F49A counted along it
# T5 sequence (P05019 49-118 V59A): as the sequence (P05019 other isoform, or with tags, fused parts or gaps) above, with A4T, V11A counted along it
# T9 sequence (P05019 49-118 F73A): as the sequence (P05019 other isoform, or with tags, fused parts or gaps) above, with A4T, F25A counted along it
# T7 sequence (P05019 49-118 P87A): as the sequence (P05019 other isoform, or with tags, fused parts or gaps) above, with A4T, P39A counted along it
# T8 sequence (P05019 49-118 R84A): as the sequence (P05019 other isoform, or with tags, fused parts or gaps) above, with A4T, R36A counted along it
# T6 sequence (P05019 49-118): as the sequence (P05019 other isoform, or with tags, fused parts or gaps) above, with A4T counted along it
binder,measurement,setting,value
B1,relative KD,[1],70
same,relative KD,[2],5.1
same,relative KD,[3],1
same,relative KD,[4],1
same,relative KD,[5],1.1
same,relative KD,[6],25
same,relative KD,[7],1.1
same,relative KD,[8],6.9
same,relative KD,[9],25
same,IC50,[10],15.7 nM
same,IC50,[11],9.1 nM
same,IC50,[12],36.7 nM
same,IC50,[13],8.5 nM
